# Results from publication PMC9309889, “Cryo-EM Structure of an Atypical Proton-Coupled Peptide Transporter: Di- and Tripeptide Permease C” (Frontiers in Molecular Biosciences, 2022).
# B1: Di- and tripeptide permease C (DtpC), wild type (natural protein, Escherichia coli, UniProt P39276 1-485, looked up)
# chain: MKTPSQPRAIYYIVAIQIWEYFSFYGMRALLILYLTHQLGFDDNHAISLFSAYASLVYVTPILGGWLADRLLGNRTAVIAGALLMTLGHVVLGIDTNSTFSLYLALAIIICGYGLFKSNISCLLGELYDENDHRRDGGFSLLYAAGNIGSIAAPIACGLAAQWYGWHVGFALAGGGMFIGLLIFLSGHRHFQSTRSMDKKALTSVKFALPVWSWLVVMLCLAPVFFTLLLENDWSGYLLAIVCLIAAQIIARMMIKFPEHRRALWQIVLLMFVGTLFWVLAQQGGSTISLFIDRFVNRQAFNIEVPTALFQSVNAIAVMLAGVVLAWLASPESRGNSTLRVWLKFAFGLLLMACGFMLLAFDARHAAADGQASMGVMISGLALMGFAELFIDPVAIAQITRLKMSGVLTGIYMLATGAVANWLAGVVAQQTTESQISGMAIAAYQRFFSQMGEWTLACVAIIVVLAFATRFLFSTPTNMIQESND
# notes: Di- and tripeptide permease C (DtpC, YjdL) of Escherichia coli; full-length cDNA amplified from the E. coli genome, cloned into pNIC-CTHF; The His tag was cut off with TEV protease; also called YjdL; DtpC WT; source: E. coli C41(DE3), purified in DDM (Ni-NTA, TEV cleavage, negative IMAC, SEC); not shown: His-Tag, C-terminal, cleaved
# Target: the molecule itself
# Assay: cryo-EM structure; DtpC-Nb26 complex in 0.015% DDM, 100 mM NaCl, 10 mM HEPES pH 7.5, 0.5 mM TCEP; inverted dimer at 3.0 Å, local focused refinement on one transporter at 2.7 Å
protein,measurement,value
B1,stoichiometry N,2
